Kd data for 14 molecules are collected here from PMC5114558 (2016).

Sequences and labels used below:
T1: ING2-PHD
T1 chain: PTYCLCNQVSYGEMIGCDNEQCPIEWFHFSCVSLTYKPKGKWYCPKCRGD

T2: KDM4A-DTD D945S (human, UniProt O75164 895-1011, D945S)
T2 sequence: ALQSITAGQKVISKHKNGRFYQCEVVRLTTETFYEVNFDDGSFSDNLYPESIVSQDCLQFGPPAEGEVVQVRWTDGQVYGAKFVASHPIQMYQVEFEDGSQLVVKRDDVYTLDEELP

T3: KDM4A-DTD N940A (human, UniProt O75164 895-1011, N940A)
T3 sequence: T2 sequence with N46A, S51D

T4: KDM4B-DTD N951M (Homo sapiens)
T4 chain: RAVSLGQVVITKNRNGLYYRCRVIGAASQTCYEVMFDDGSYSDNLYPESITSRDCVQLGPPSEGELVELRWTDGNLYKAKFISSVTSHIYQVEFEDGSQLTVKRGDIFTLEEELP

T5: KDM4B-DTD N951G (Homo sapiens)
T5 chain: T4 chain with M35G

B1: KDM4A-DTD N931D (domain or fragment)
chain: T2 sequence with N37D, S51D
B2: KDM4A-DTD triple mutant N931D/D939R/D945R (DRR) (domain or fragment)
chain: T2 sequence with N37D, D45R, S51R
modifications: HaloTag-Alexa 660 ligand conjugated to the HaloTag in the far western
B3: KDM4A double tudor domain (KDM4A-DTD), HaloTag-tagged, wild type (domain or fragment)
chain: T2 sequence with S51D
B4: KDM4B double tudor domain (KDM4B-DTD), HaloTag-tagged, wild type (domain or fragment)
chain: T4 chain with M35N
B5: KDM4C double tudor domain (KDM4C-DTD), HaloTag-tagged, wild type (domain or fragment)
chain: KVISVGQTVITKHRNTRYYSCRVMAVTSQTFYEVMFDDGSFSRDTFPEDIVSRDCLKLGPPAEGEVVQVKWPDGKLYGAKYFGSNIAHMYQVEFEDGSQIAMKREDIYTLDEELP

Targets include H3T3phK4me3 peptide (UniProt P68431, phosphothreonine at T3; trimethyl-lysine at K4); KDM4B-DTD N960A (human, UniProt O94953 917-1031, N960A); KDM4B-DTD S965D (human, UniProt O94953 917-1031, S965D).
What all share (experiment): FP
The test “KDM4A-DTD N931D” addresses B1.
The target in test [1] is B5.
The target of test [2] is B4.
For test [3], the target named is H3K27me3.
In test [4] the target is H3K9me3.
Test [5] addresses H3K27me3. The source holds these as a separate data set.
Test [6] addresses H3K27me3. This is another data set of the same source.
Another test has as its target T1, ING2-PHD.
Test [7] concerns the target B2.
For another test, the target named is T2, KDM4A-DTD D945S.
A further test has as its target T3, KDM4A-DTD N940A.
Test [8] has as its target B3.
A further test addresses T4, KDM4B-DTD N951M.
The target in the next test is T5, KDM4B-DTD N951G.
Test [9] concerns the target B5.
The target in test [10] is H3K9me3. This is another data set of the same source.
The target in test [11] is B4.

Numbering of substitutions follows the chain as printed. In names and notes the source's numbering stands. Several values for one entry are separate records, joined by “and”; a condition that tells them apart may be missing. Equal entries are not always repeated. Where two headings read alike, the source gives them in different places. Non-standard residues stand in square brackets, D forms with d. No end group written: not given here. Me2a = asymmetric dimethyl (on arginine); pT = C[C@@H](OP(=O)(O)O)[C@H](N)C(=O)O

Sequence of KDM4B-DTD S965D (O94953 917-1031 S965D): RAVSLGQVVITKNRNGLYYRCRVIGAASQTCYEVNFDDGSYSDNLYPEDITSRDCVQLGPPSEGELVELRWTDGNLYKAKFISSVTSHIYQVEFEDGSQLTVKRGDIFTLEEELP
Sequence of KDM4B-DTD N960A (O94953 917-1031 N960A): as the sequence (O94953 917-1031 S965D) above, with N44A, D49S counted along it

One may read the Kd as the constant that tells how readily two partners part at equilibrium. Read a low Kd as a tighter complex. Consider RKQLATK(Me)AARKSAPAT (also: fluorescein label, end not given here) [H3K23me1 peptide (monomethylated H3K23), fluorescein-labelled], for which the Kd with KDM4A-DTD N931D came to 31.1 µM; in [1], 520 µM; in [2], 155 µM.
Regarding RKQLATK(Me2)AARKSAPAT (also: fluorescein label, end not given here) [H3K23me2 peptide (dimethylated H3K23), fluorescein-labelled], the Kd with KDM4A-DTD N931D amounted to 2.6 µM; in test [1] it was 180 µM; in test [2] it was 35.3 µM.
Regarding B1, the equilibrium dissociation constant (Kd) with H3K27me3 [3] worked out at 98.6 µM; with H3K9me3 [4], 83.3 µM.
In the test with H3K27me3 [5], B2 returned a Kd of 570 µM.
Consider B3, for which the Kd with H3K27me3 [6] and with H3T3phK4me3 peptide was 122 µM throughout.
As to ARTK(Me3)QTARKSTGGK (also: fluorescein label, end not given here) [H3K4me3 peptide, fluorescein-labelled], the Kd is 5.8 µM with ING2-PHD; 2.7 µM in the test with KDM4A-DTD N931D; 370 µM in test [7]; 151 µM with KDM4A-DTD D945S; 74.1 µM in the test with KDM4A-DTD N940A; 2.7 µM in test [8].
With RKQLATK(Me3)AARKSAPAT (also: fluorescein label, end not given here) [H3 (17-32) K23me3 peptide, fluorescein-labelled], the Kd with ING2-PHD is 257 µM; with KDM4B-DTD N960A, 107 µM; with KDM4B-DTD S965D it was 16.4 µM; with KDM4B-DTD N951M, 41.4 µM; with KDM4B-DTD N951G it was 32.6 µM; in test [9], 73.6 µM.
For the molecule RKQLATK(Me3)AAR(Me2a)KSAPAT (also: fluorescein label, end not given here) [H3K23me3R26me2a peptide, fluorescein-labelled], the Kd in the test with KDM4A-DTD N931D was 6 µM; in test [1], 43.7 µM; in test [2] it was 53.1 µM.
For RKQLATK(Me3)AAAKSAPAT (also: fluorescein label, end not given here) [H3K23me3R26A peptide, fluorescein-labelled], in that order: 27.7 µM, 72.5 µM and 180 µM.
Turning to B4, the Kd with H3K27me3 [6] came out at 140 µM; with H3K9me3 [10], 800 µM.
In the case of RKQLA[pT]K(Me3)AARKSAPAT (also: fluorescein label, end not given here) [H3T22phK23me3 peptide, fluorescein-labelled], the Kd with KDM4A-DTD N931D was 18.7 µM; in test [1], 507 µM; in test [2], 130 µM and 259 µM.
Turning to AKRHRK(Me3)VLRDN (also: fluorescein label, end not given here) [H4K20me3 peptide, fluorescein-labelled], the figures for the Kd in test [9] and in [11] were 58.7 µM and 60 µM, respectively.
As to B5, the Kd with H3K27me3 [6] was 104 µM.
On to ARKSTGGK(Me3)APRKQLATK (also: fluorescein label, end not given here) [H3K14me3 peptide, fluorescein-labelled], for which the Kd in test [7] was determined as 158 µM; in test [9] it was 166 µM; in [8] it was 108 µM; in [11], 165 µM.
